Laboratory results taken from patent US20090215686A1 (published 2009).

Tests used:
[1] = target: T1, Met extracellular domain fragment (residues 25-567, sema domain and cysteine-rich domain) with C-terminal … (UniProt P08581 25-307; P08581 308-567); test: AlphaScreen competition against biotin-NK1 binding to 6his-Met, 1 uM heparin
T1 construct: also called 6his-Met; Met sema domain
Method: (§1) The binding of NK1 to Met was determined by AlphaScreen assays using a hexahistidine detection kit from Perkin-Elmer. The experiment was performed using 10 nM biotin-NK1 and 6his-Met in the presence of 5 μg/ml donor and acceptor beads in a buffer containing 50 mM MOPS, pH7.4, 50 mM NaF, 0.05 mM CHAPS, and 0.1 mg/ml bovine serum albumin. Competition experiments were performed with 0.01 to 2.5 μM untagged ligand in the presence of 1 μM heparin and IC₅₀ values for NK1-Met interaction were determined from a nonlinear least square fit of the data. All experiments were duplicated or triplicated with standard errors typically less than 10% of the measurements. The Met dimerization assays were prepared using 40 nM of 6his-Met in the presence of 5 μg/ml nickel chelate donor and acceptor beads (Perkin-Elmer). The effect of Met ligands and heparin on Met dimerization was determined using 1 μM untagged ligand and 1 μM heparin.
(§2) In contrast to the Met dimerization activity, the Met binding activity of these NK1 mutants was little affected.

[2] = target: T1, Met extracellular domain fragment …; test: AlphaScreen competition of unlabeled ligand against biotin-NK1 binding to 6his-Met, 1 uM heparin
Method: as §1
To determine the binding affinities of the various NK1s for Met, competition experiments were performed using unlabeled NK1 proteins (FIG. 1E). […] These quantitative measurements thus establish that the affinities of the NK1 fragments are 10-50 folds weaker than the full-length HGF.

[3] = target: T1, Met extracellular domain fragment …; test: cell-based or functional assay
[4] = target: the molecule itself; test: crystal structure of mouse NK1
Method: Data were collected with a MAR 225 CCD detector at 5-ID (DND-CAT) of the Advance Photon Source (APS) located at Argonne National Laboratory. Crystals were flash frozen in liquid nitrogen after a quick wash in cryoprotectant solution containing 50 mM ammonium sulfate, 29% PEG 4000 or 1000 (w/w) (human or mouse NK1 respectively), 100 mM Tris-HCl pH 8.0, 0.5 or 0 mM βOG, 100 mM NaCl, and 15% ethylene glycol. Data was integrated and scaled with HKL2000 (Otwinowski and Minor, 1997). The human NK1 crystallized in space group P21, a=49.40 Å, b=51.81 Å, c=73.17 Å, and β=107.87°, and the mouse NK1 in P63 with a=b=86.49 Å, c=104.45 Å. The structure was solved by molecular replacement using the PDB coordinates 1NK1. Molecular replacement and model refinement were performed with CNS, where twin fraction was incorporated for the refinement for the mouse structure (Brunger et al., 1998). Manual model building was done with the program 0 (Jones et al., 1991).
To investigate the molecular mechanism by which NK1 induces Met dimerization, the crystal structure of mouse NK1 at a 2.4 Å resolution and a high resolution structure of human NK1 (1.8 Å) were determined for structural comparison.

[5] = target: T1, Met extracellular domain fragment …; test: SPR, MET567 amine-coupled to a CM5 chip, ligand in flow
Source text: (§3) Briefly, a CM5 chip was coated with MET567 by amine coupling chemistry. Ligand was then flowed through the cell at various concentrations to allow calculation of the dissociation equilibrium (KD).
(§4) NK1 versions of the above mutants were expressed in the yeast P. pastoris and purified to homogeneity.

[6] = target: T1, Met extracellular domain fragment …; test: SPR, MET567 amine-coupled to a CM5 chip, against wild type NK1
Source text: as §3, §4

[7] = target: T1, Met extracellular domain fragment …; test: AlphaScreen competition: unlabeled NK1 mutant against biotinylated NK1 binding to 6his-Met, with heparin [b]
Method: as §1, §2

[8] = target: T1, Met extracellular domain fragment …; test: AlphaScreen, biotinylated NK1 on streptavidin donor beads and 6his-Met on nickel chelate acceptor beads, with heparin (sheet prints '+ 1 pM HEPARIN') [d]
Method: as §1
(§5) To determine the functional activity of the above purified proteins, the direct interactions of Met with the biotinylated NK1 were measured using AlphaScreen assays as illustrated in FIG. 1C. […] When NK1 interacts with Met, excitation of a laser beam at 680 nm causes the donor beads to emit single oxygen molecules to activate the fluorophores in the acceptor beads and a light signal is detected at 520-620 nm. […]

[9] = target: T1, Met extracellular domain fragment …; test: AlphaScreen, biotinylated NK1 and histidine-tagged Met, with against without heparin
Method: as §1, §5

B1: human HGF NK1 (residues 28-209), expressed in E. coli (ligand)
chain: YAEGQRKRRNTIHEFKKSAKTTLIKIDPALKIKTKKVNTADQCANRCTRNKGLPFTCKAFVFDKARKQCLWFPFNSMSSGVKKEFGHEFDLYENKDYIRNCIIGKGRSYKGTVSITKSGIKCQPWSSMIPHEHSFLPSSYRGKDLQENYCRNPRGEEGGPWCFTSNPEVRYEVCDIPQCSEV
notes: Expressed as a 6xHis-thioredoxin fusion; also called human NK1; wild type NK1
IC50 [1]: 49 nM | IC50 [2]: ~100 nM | fold weaker affinity than mouse NK1 and the human R134G mutant [2]: 3 fold | Met dimerization signal (AlphaScreen), 1 µM NK1 without heparin; fold label over the bar [b] [3]: 1 fold | Met dimerization signal (AlphaScreen, 6his-Met on donor and acceptor beads), 1 µM NK1 with heparin; fold label over the bar [b] [3]: 84 fold

B2: mouse NK1 (ligand)
chain: YAEGQKKRRNTLHEFKKSAKTTLTKEDPLLKIKTKKVNSADECANRCIRNRGFTFTCKAFVFDKSRKRCYWYPFNSMSSGVKKGFGHEFDLYENKDYIRNCIIGKGGSYKGTVSITKSGIKCQPWNSMIPHEHSFLPSSYRGKDLQENYCRNPRGEEGGPWCFTSNPEVRYEVCDIPQCSEV
notes: also called mouse NK1 (E. coli)
binding result [4]: binds | IC50 [2]: ~30 nM | Met dimerization signal (AlphaScreen), 1 µM NK1 without heparin; fold label over the bar [b] [3]: 1 fold | Met dimerization signal (AlphaScreen, 6his-Met on donor and acceptor beads), 1 µM NK1 with heparin; fold label over the bar [b] [3]: 46 fold

B3: wild type NK1 expressed in P. pastoris (Example 7) (ligand)
chain: YAEGQRKRRNTIHEFKKSAKTTLIKIDPALKIKTKKVNTADQCANRCTRNKGLPFTCKAFVFDKARKQCLWFPFNSMSSGVKKEFGHEFDLYENKDYIRNCIIGKGRSYKGTVSITKSGIKCQPWSSMIPHEHSFLPSSYRGKDLQENYCRNPRGEEGGPWCFTSNPEVRYEVCDIPQCSEV
notes: Lietha 2001
Kd [5]: 183 nM

B4: NK1 K1 mutant K1D (V140A:I142A), P. pastoris (ligand)
chain: YAEGQRKRRNTIHEFKKSAKTTLIKIDPALKIKTKKVNTADQCANRCTRNKGLPFTCKAFVFDKARKQCLWFPFNSMSSGVKKEFGHEFDLYENKDYIRNCIIGKGRSYKGTASATKSGIKCQPWSSMIPHEHSFLPSSYRGKDLQENYCRNPRGEEGGPWCFTSNPEVRYEVCDIPQCSEV
Kd [5]: 160 nM

B5: NK1 double mutant LF (D123A:Y124A), P. pastoris (ligand)
chain: YAEGQRKRRNTIHEFKKSAKTTLIKIDPALKIKTKKVNTADQCANRCTRNKGLPFTCKAFVFDKARKQCLWFPFNSMSSGVKKEFGHEFDLYENKAAIRNCIIGKGRSYKGTVSITKSGIKCQPWSSMIPHEHSFLPSSYRGKDLQENYCRNPRGEEGGPWCFTSNPEVRYEVCDIPQCSEV
fold reduced MET binding affinity [6]: > 100 fold

B6: NK1 double mutant LG (D123A:N127A), P. pastoris (ligand)
chain: YAEGQRKRRNTIHEFKKSAKTTLIKIDPALKIKTKKVNTADQCANRCTRNKGLPFTCKAFVFDKARKQCLWFPFNSMSSGVKKEFGHEFDLYENKAYIRACIIGKGRSYKGTVSITKSGIKCQPWSSMIPHEHSFLPSSYRGKDLQENYCRNPRGEEGGPWCFTSNPEVRYEVCDIPQCSEV
fold reduced MET binding affinity [6]: > 100 fold

B7: NK1 linker mutant LC (Y124A), P. pastoris (ligand)
chain: YAEGQRKRRNTIHEFKKSAKTTLIKIDPALKIKTKKVNTADQCANRCTRNKGLPFTCKAFVFDKARKQCLWFPFNSMSSGVKKEFGHEFDLYENKDAIRNCIIGKGRSYKGTVSITKSGIKCQPWSSMIPHEHSFLPSSYRGKDLQENYCRNPRGEEGGPWCFTSNPEVRYEVCDIPQCSEV
Kd [5]: 149 nM

B8: NK1 linker mutant LE (N127A), P. pastoris (ligand)
chain: YAEGQRKRRNTIHEFKKSAKTTLIKIDPALKIKTKKVNTADQCANRCTRNKGLPFTCKAFVFDKARKQCLWFPFNSMSSGVKKEFGHEFDLYENKDYIRACIIGKGRSYKGTVSITKSGIKCQPWSSMIPHEHSFLPSSYRGKDLQENYCRNPRGEEGGPWCFTSNPEVRYEVCDIPQCSEV
Kd [5]: 83 nM

B9: human NK1 mutant K85A in the R134G background (ligand)
chain: YAEGQRKRRNTIHEFKKSAKTTLIKIDPALKIKTKKVNTADQCANRCTRNKGLPFTCAAFVFDKARKQCLWFPFNSMSSGVKKEFGHEFDLYENKDYIRNCIIGKGGSYKGTVSITKSGIKCQPWSSMIPHEHSFLPSSYRGKDLQENYCRNPRGEEGGPWCFTSNPEVRYEVCDIPQCSEV
notes: also called K85A NK1
IC50 [1]: 32 nM

B10: human NK1 mutant K85A/D123A in the R134G background (ligand)
chain: YAEGQRKRRNTIHEFKKSAKTTLIKIDPALKIKTKKVNTADQCANRCTRNKGLPFTCAAFVFDKARKQCLWFPFNSMSSGVKKEFGHEFDLYENKAYIRNCIIGKGGSYKGTVSITKSGIKCQPWSSMIPHEHSFLPSSYRGKDLQENYCRNPRGEEGGPWCFTSNPEVRYEVCDIPQCSEV
notes: made in the R134G background
IC50 [7]: 75 nM

B11: human NK1 mutant K85A/N127A in the R134G background (ligand)
chain: YAEGQRKRRNTIHEFKKSAKTTLIKIDPALKIKTKKVNTADQCANRCTRNKGLPFTCAAFVFDKARKQCLWFPFNSMSSGVKKEFGHEFDLYENKDYIRACIIGKGGSYKGTVSITKSGIKCQPWSSMIPHEHSFLPSSYRGKDLQENYCRNPRGEEGGPWCFTSNPEVRYEVCDIPQCSEV
notes: made in the R134G background
IC50 [7]: 97 nM

B12: human NK1 mutant R134G (ligand)
chain: YAEGQRKRRNTIHEFKKSAKTTLIKIDPALKIKTKKVNTADQCANRCTRNKGLPFTCKAFVFDKARKQCLWFPFNSMSSGVKKEFGHEFDLYENKDYIRNCIIGKGGSYKGTVSITKSGIKCQPWSSMIPHEHSFLPSSYRGKDLQENYCRNPRGEEGGPWCFTSNPEVRYEVCDIPQCSEV
notes: Positions count on wild type NK1; also called human R134G mutant; human R134G NK1
IC50 [2]: ~30 nM | Met dimerization signal (AlphaScreen), 1 µM NK1 without heparin; fold label over the bar [b] [3]: 1 fold | Met dimerization signal (AlphaScreen, 6his-Met on donor and acceptor beads), 1 µM NK1 with heparin; fold label over the bar [b] [3]: 68 fold

B13: human NK1 mutant Y124A in the R134G background (ligand)
chain: YAEGQRKRRNTIHEFKKSAKTTLIKIDPALKIKTKKVNTADQCANRCTRNKGLPFTCKAFVFDKARKQCLWFPFNSMSSGVKKEFGHEFDLYENKDAIRNCIIGKGGSYKGTVSITKSGIKCQPWSSMIPHEHSFLPSSYRGKDLQENYCRNPRGEEGGPWCFTSNPEVRYEVCDIPQCSEV
notes: also called Y124A NK1; Y124A mutant
IC50 [1]: 39 nM

B14: biotinylated human NK1 (ligand)
chain: YAEGQRKRRNTIHEFKKSAKTTLIKIDPALKIKTKKVNTADQCANRCTRNKGLPFTCKAFVFDKARKQCLWFPFNSMSSGVKKEFGHEFDLYENKDYIRNCIIGKGRSYKGTVSITKSGIKCQPWSSMIPHEHSFLPSSYRGKDLQENYCRNPRGEEGGPWCFTSNPEVRYEVCDIPQCSEV
modifications: biotin on the N-terminal biotin acceptor peptide (coexpressed BirA)
notes: Made from the His6-thioredoxin-NK1 vector, digested with thrombin, purified on monomeric avidin; also called biotin-NK1; biotinylated NK1; not shown: 20 amino acid biotin acceptor peptide from the pDW464 plasmid (Duffy et al., 1998)
fold label beside the bar of NK1+MET with heparin (NK1-MET binding signal) [8]: 265 fold | fold increase of the NK1-Met binding signal on addition of heparin [9]: > 200 fold
